Sequences and labels used below:
B1: WT1 peptide p235-243 (…) (peptide)
peptide: CMTWNQMNL
B2: WT1 peptide p228-236 (…) (peptide)
peptide: QMTSQLECM
B3: WT1 peptide human p10-18 (…) (peptide)
peptide: ALLPAVPSL
B4: WT1 peptide p221-229 (…) (peptide)
peptide: YSSDNLYQM
B5: WT1 peptide human p136-144 (…) (peptide)
peptide: SCLESQPAI
B6: WT1 peptide p329-337 (…) (peptide)
peptide: GCNKRYFKL
B7: WT1 peptide p225-233 (…) (peptide)
peptide: NLYQMTSQL
B8: WT1 peptide p239-247 (…) (peptide)
peptide: NQMNLGATL
B9: WT1 peptide P118-126 (…) (peptide)
peptide: SQASSGQAR
B10: WT1 peptide P125-133 (…) (peptide)
peptide: ARMFPNAPY
B11: WT1 peptide P129-137 (…) (peptide)
peptide: PNAPYLPSC
B12: WT1 peptide P128-136 (…) (peptide)
peptide: FPNAPYLPS
B13: WT1 peptide P131-139 (…) (peptide)
peptide: APYLPSCLE
B14: WT1 peptide P124-132 (…) (peptide)
peptide: QARMFPNAP
B15: WT1 peptide P119-127 (…) (peptide)
peptide: QASSGQARM
B16: WT1 peptide P120-128 (…) (peptide)
peptide: ASSGQARMF
B17: WT1 peptide P130-138 (…) (peptide)
peptide: NAPYLPSCL
B18: WT1 peptide P127-135 (…) (peptide)
peptide: MFPNAPYLP
B19: WT1 peptide P121-129 (…) (peptide)
peptide: SSGQARMFP
B20: WT1 peptide P117-125 (…) (peptide)
peptide: PSQASSGQA

We go through 20 molecules from patent US20070026008A1.

In the first test the target is mouse B6 class I antigens (mouse). Nature of the test: RMA-S cell MHC stabilisation, peptide 25 ug/ml, flow cytometry with FITC anti-D^b or anti-K^b; % increase of MFI over medium alone. A general note: A flow cytometer gives signals particle by particle.
In turn, B1 yielded a Binding Affinity to Mouse MHC Class I of 33.6%.
Same read-out and setting: the value for B2 was 1.2%.
Molecule B3 yielded a Binding Affinity to Mouse MHC Class I of 2.2%.
Same read-out and setting: the value for B4 was 0.8%.
Still for that read-out and setting: the value for B5 was 52%; that for B6 was 1.2%.
For the molecule B7, the Binding Affinity to Mouse MHC Class I was 5.8%.
B8 showed a Binding Affinity to Mouse MHC Class I of 1%.

Another test shares this target. Kind of test: Binding of 9-mer peptides within p117-139 to mouse B6 (H-2^b) class I; RMA-S cell MHC stabilisation, flow cytometry.
Molecule B9 gave a Binding Affinity to Mouse MHC Class I of 2%.
The molecule B10 returned a Binding Affinity to Mouse MHC Class I of 1%.
For B11, the Binding Affinity to Mouse MHC Class I is 1%.
Still for that read-out and setting: the value for B12 was 1%.
In turn, B13 displayed a Binding Affinity to Mouse MHC Class I of 1%.
As to B14, the Binding Affinity to Mouse MHC Class I is 1%.
In turn, B15 registered a Binding Affinity to Mouse MHC Class I of 2%.
On the same count and under the same terms, the result for B16 reads 1%; that for B17, 79%; that for B18, 2%.
With B19, the Binding Affinity to Mouse MHC Class I is 1%.
B20: the Binding Affinity to Mouse MHC Class I came to 2%.
